Measured values reported in patent US20120021972A1 (CADILA HEALTHCARE, published 2012).
Starred links: 1 amine or outer side, 2 acyl side, 3 side chain; linkers in the order of their positions; H or OH if unused. Non-standard residues stand in square brackets, D forms with d. No end group written: not given here. *: point of attachment. NMe2F‑APPA = N-methyl-2-amino-5-(2-fluorophenyl)pentanoic acid, CN([C@@H](CCCc1ccccc1F)C(=O)[*:2])[*:1]; 2F,4CF3‑APPA = 2-amino-5-(2-fluoro-4-(trifluoromethyl)phenyl)pentanoic acid; Bip(2'-Et-4'-OMe) = CCc1cc(OC)ccc1-c1ccc(C[C@H](N)C(=O)O)cc1; Leu(5,5,5,5',5',5'-F6) = N[C@@H](CC(C(F)(F)F)C(F)(F)F)C(=O)O; 2F‑APPA = 2-amino-5-(2-fluorophenyl)pentanoic acid; αMePhe(2-F) = C[C@](N)(Cc1ccccc1F)C(=O)O; NMeBip(OMe) = N-methylated Bip(OMe); hhPhe = N[C@@H](CCCc1ccccc1)C(=O)O; αMeF = C[C@](N)(Cc1ccccc1)C(=O)O; NMeD = CN[C@@H](CC(=O)O)C(=O)O; aThr = C[C@H](O)[C@H](N)C(=O)O; NMeAPPA = not defined here; CNB = not defined here; Aib = CC(C)(N)C(=O)O; Moc = COC(=O)*

What follows are binders tested against human glucagon receptor (human, UniProt P47871 26-477) (assay: cell-based or functional assay).

Row | Binder | inhibition of cAMP production, 1 nM [pmol/ml/µg prt] | inhibition of cAMP production, 10 nM [pmol/ml/µg prt] | inhibition of cAMP production, 100 nM [pmol/ml/µg prt] | inhibition of cAMP production, 1 µM [pmol/ml/µg prt] | inhibition of cAMP production, 10 µM [pmol/ml/µg prt]
1 | H[Aib][Leu(5,5,5,5',5',5'-F6)]GT[αMePhe(2-F)][aThr]SD[Bip(2'-Et-4'-OMe)][hhPhe] [Seq. ID. No. 225: H-Aib-(Hfl)-GT-(α-Me-2F-Phe)-T(allo)-SD-Bip(OMe)-(APPA)] | 5 | 2 | 0 | 0 | 0
2 | Moc-H[Aib][CNB]GT[αMePhe(2-F)]TSD[Bip(2'-Et-4'-OMe)][2F‑APPA] (reading uncertain) [Seq. ID. No. 208: CH3OCO-H-Aib-(CNB)-GT-(α-Me-2F-Phe)-TSD-Bip(OMe)-(2F-APPA)] | 5 | 3 | 1 | 0 | 0
3 | Ac-H[Aib][Leu(5,5,5,5',5',5'-F6)]GT[αMePhe(2-F)]TSD[Bip(2'-Et-4'-OMe)][2F‑APPA] [Seq. ID. No. 212: CH3CO-H-Aib-(Hfl)-GT-(α-Me-2F-Phe)-TSD-Bip(OMe)-(2F-APPA)] | 10 | 8 | 6 | 4 | 1
4 | H[Aib][Leu(5,5,5,5',5',5'-F6)]G[aThr][αMePhe(2-F)][aThr]SD[Bip(2'-Et-4'-OMe)][2F‑APPA] (also: thioamide (C═S) bond Z10-Z11) [Seq. ID. No. 218: H-Aib-(Hfl)-G-T(allo)-(α-Me-2F-Phe)-T(allo)-SD-Bip(OMe)-(C═S)-(2F-APPA)] | 9 | 6 | 5 | 3 | 0

What follows are binders tested against human GLP-1 receptor (human, UniProt P43220 24-463) (assay: cell-based or functional assay).
Chain of human GLP-1 receptor (P43220 24-463): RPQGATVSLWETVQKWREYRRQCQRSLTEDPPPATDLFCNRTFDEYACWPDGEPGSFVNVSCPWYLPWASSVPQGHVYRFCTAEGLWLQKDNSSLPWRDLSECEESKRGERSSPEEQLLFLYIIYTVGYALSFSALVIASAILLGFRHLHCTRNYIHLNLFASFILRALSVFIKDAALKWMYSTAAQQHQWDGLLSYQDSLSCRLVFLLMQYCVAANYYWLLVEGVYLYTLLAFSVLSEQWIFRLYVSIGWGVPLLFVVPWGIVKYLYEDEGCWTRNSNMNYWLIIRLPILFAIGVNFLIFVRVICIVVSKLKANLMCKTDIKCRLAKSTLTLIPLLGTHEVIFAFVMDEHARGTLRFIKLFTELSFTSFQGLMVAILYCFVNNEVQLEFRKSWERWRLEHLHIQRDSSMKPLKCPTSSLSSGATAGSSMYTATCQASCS

Row | Binder | cAMP release, % activity, 1 nM [%] | cAMP release, % activity, 10 nM [%] | cAMP release, % activity, 100 nM [%] | cAMP release, % activity, 1 µM [%] | cAMP release, % activity, 10 µM [%]
5 | H[Aib][Leu(5,5,5,5',5',5'-F6)]GT[αMeF]TSD[Bip(2'-Et-4'-OMe)][hhPhe] [Seq. ID. No. 230: H-Aib-(Hfl)-GT-(α-Me-Phe)-TSD-Bip(OMe)-(APPA)] | 99 | 99 | 99 | 99 | 99
6 | H[Aib][Leu(5,5,5,5',5',5'-F6)]G[aThr][αMePhe(2-F)][aThr]S[NMeD][NMeBip(OMe)][NMeAPPA] (reading uncertain) [Seq. ID. No. 220: H-Aib-(Hfl)-G-T(allo)-(α-Me-2F-Phe)-T(allo)-S-(NMe)D-((NMe)Bip(OMe))-((NMe)(APPA))] | 93 | 99 | 99 | 99 | 99
7 | H[Aib][CNB]GTFTSD[Bip(2'-Et-4'-OMe)][2F,4CF3‑APPA] (reading uncertain) [Seq. ID. No. 81: H-Aib-(CNB)-GTFTSD-Bip(OMe)-(2F, 4CF3-APPA)] | 69 | 98 | 99 | 99 | 99
8 | Moc-H[Aib]QG[aThr][αMePhe(2-F)][aThr]SD[NMeBip(OMe)][NMe2F‑APPA] [Seq. ID. No. 140: CH3OCO-H-Aib-QG-T(allo)-(α-Me-2F-Phe)-T(allo)-SD-((NMe)Bip(OMe))-((NMe)(2F-APPA))] | 51 | 86 | 91 | 99 | 99
9 | Moc-H[Aib]QG[aThr][αMePhe(2-F)][aThr]SD[Bip(2'-Et-4'-OMe)][hhPhe] (also: reduced (CH2) bonds between 9-10 and 10-11) [Seq. ID. No. 198: CH3OCO-H-Aib-QG-T(allo)-(α-Me-2F-Phe)-T(allo)-SD-(CH2)-Bip(OMe)-(CH2)-(APPA)] | 82 | 87 | 92 | 99 | 99
10 | H[Aib][Leu(5,5,5,5',5',5'-F6)]G[aThr][αMePhe(2-F)][aThr]SD[Bip(2'-Et-4'-OMe)][2F‑APPA] (also: thioamide (C═S) bonds Z9-Z10 and Z10-Z11) [Seq. ID. No. 216: H-Aib-(Hfl)-G-T(allo)-(α-Me-2F-Phe)-T(allo)-SD-(C═S)-Bip(OMe)-(C═S)-(2F-APPA)] | 93 | 99 | 99 | 99 | 99
